Source: the MegaScale stability set (Tsuboyama et al. 2023)

B1: HHH_rd2_0155 (parent)
chain: PPDDERKKAEKAARSGNEEKAREILERLGYSEDEARELAKRLR

Variants of: B1
Test: folding stability dG (cDNA display proteolysis); higher = more stable
Conditions: PBS, room temperature

Folding stability dG [kcal/mol]: each site, then its substitutions
E32: D 1.4; Y 1.94; F 1.96; W 1.42; A 2.33; I 1.88; K 2.21; P 2.48; T 1.93; L 1.66; C 1.86; Q 1.99; M 1.78; G 1.49; V 2; S 2.08; R 1.96; H 1.97; N 1.51
A21: F 1.63; K 0.641; Y 1.52; I 1.68; S 1.23; M 1.46; H 0.916; E 0.697; L 1.81; Q 0.924; N 0.934; G 0.961; C 1.87; T 1.08; D 0.869; R 0.974; P 0.632; V 1.27
E26: I 2.65; M 3.05; F 1.47; Q 2.39; L 2.56; H 1.82; N 1.22; T 1.93; R 2.65; A 1.73; S 1.72; Y 1.49; P -0.06; V 2.61; D 0.509; K 2.41; G 1.5; W 0.866
R36: D 0.859; A 1.56; C 0.956
K20: E 2.11; V 2.05; Q 1.86; D 1.33; H 1.73; M 2.19; F 1.92; A 2.1; L 2.97; T 1.77; N 1.21; R 1.89; P 0.917; I 1.9; Y 2.11; S 1.61; W 1.98; G 1.66
A35: H 0.728; Y 0.905; L 1.02; Q 0.88; N 0.635; D 0.38; G 0.605; M 1.02; E 0.141; S 1.25; W 1; P -0.246; R 0.564; T 0.991; V 0.99; K 0.591; F 0.989; I 1.42
Y30: G 0.222; T 0.175; L 1.79; A 0.811; F 1.94; Q 0.238; I 1.06; M 1.74; P 0.57; D 0.243; W 1.34; H 1.13; R 0.36; E 0.197; K 0.407; S 0.426; V 0.808
R22: E 0.77; H 0.903; G 0.568; A 1.58; N 0.74; D 0.179; L 1.4; W 1.13; K 1.44; S 1; P 0.374; Y 1.33; F 1.09; V 2.21; M 1.88; T 1.27; I 2.21; Q 1.41
L28: F 1.2; D 0.418; W 1.47; H 0.699; N 0.822; Q 0.844; G 0.647; Y 0.983; A 1.54; P 0.261; K 0.443; T 0.615; R 0.697; M 2.29; V 0.87; S 0.685; I 1.7; C 1.85; E 0.577
G29: E 0.491; A 0.3; V 0.455; P -0.509; W 0.361; D 0.445; S 0.474; Q 0.091; K 0.226; H 0.665; F 0.708; R 0.281; N 0.552; L -0.221; T 0.143; M 0.484; Y 0.196; I 0.244
R27: A 2.07; N 1.7; D 0.997; P 0.534; K 2.14; Y 1.41; T 1.47; F 1.39; V 1.01; G 1.89; M 1.7; Q 1.89; H 1.6; E 1.1; S 1.94; I 1.28; W 1.44; L 1.81
E18: Y 2.25; L 2.8; Q 1.5; T 1.8; A 1.57; H 1.44; P 1.23; N 1.17; I 2.6; D 1.53; F 2.24; K 0.82; W 2.32; S 1.37; M 2.61; V 2.3; G 1.19; R 0.996
N17: Y 1.71; W 1.98; V 0.993
L25: K -0.071; A 0.215; V 0.267; Y 1.87; M 0.884; R 0.127; Q 0.444; H -0.026; W 1.64; N 0.253; F 2.35; I 0.435; G 0.372; D 0.2; E 0.37; T 0.034; S 0.333; P -0.039
S31: F 0.694; M 1.03; Y 0.287; G 1.44; N 1.66; L 0.779; W 0.564; A 1.28; I 0.504; E 1.03; T 2.13; V 0.347; H 1.02; P 1.46; R 1.07; Q 1.2; K 1.35; D 1.36
E23: Q 2.18; A 2.06; T 1.69; D 1.54; W 1.83; Y 1.68; R 2.21; S 1.73; G 1.4; H 1.85; F 1.61; L 2.19; P 0.763; M 2.03; V 1.72; N 1.52; K 2.12; I 1.93; C 2.35
D33: P 1.55; Q 2.09; W 1.83; I 1.87; F 1.77; S 2.13; V 1.71; G 1.59; A 2.25; Y 1.91; R 1.79; L 1.85; H 1.86; M 1.8; N 1.79; K 1.92; T 1.92; E 2.19
E34: Q 1.81; T 1.34; L 1.35; W 1.08; K 1.25; C 1.92; P 0.438; H 1.38; S 1.25; M 1.59; Y 1.51; F 1.39; I 1.44; V 1.39; N 1.21; A 1.78; R 1.4; D 1.87; G 0.998
I24: V 0.856; G 0.167; W 1.38; L 1.57; Q 0.718; Y 1.44; R 0.756; K 0.671; S 0.659; M 1.43; D 0.375; A 0.975; F 1.3; E 0.689; N 0.514; T 0.469; H 1.11; P 0.158
E19: Y 1.79; R 2.16; H 1.7; G 1.6; M 2.22; F 1.91; L 2.15; V 1.95; W 1.94; D 2.03; K 2.18; T 2.05; C 2.27; Q 2.05; S 1.9; N 1.81; A 2.3; P 1.61; I 2.05
